Our source for the Kd values is PMC9245664 (Proceedings of the National Academy of Sciences of the …, 2022).

Test in all cases: NMR titration
For assay [1], the target named is T1, Wzc_(CDΔC,ΔCys) (Cys544Ser/Cys563Ser) (E. coli (K-12), UniProt P76387 447-704, Cys544Ser | Cys563Ser).
T1 sequence: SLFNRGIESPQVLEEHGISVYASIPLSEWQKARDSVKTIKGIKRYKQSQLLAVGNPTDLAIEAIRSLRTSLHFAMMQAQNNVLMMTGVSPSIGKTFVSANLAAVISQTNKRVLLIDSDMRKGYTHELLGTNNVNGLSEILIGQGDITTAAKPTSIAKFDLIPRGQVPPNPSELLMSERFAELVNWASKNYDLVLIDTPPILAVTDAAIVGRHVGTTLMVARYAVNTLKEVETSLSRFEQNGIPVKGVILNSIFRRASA

For assay [2], the target named is T2, Wzc_(CDΔC,ΔCys,Val466Cys) (E. coli (K-12), UniProt P76387 447-704, Cys544Ser | Cys563Ser | Val466Cys).
T2 sequence: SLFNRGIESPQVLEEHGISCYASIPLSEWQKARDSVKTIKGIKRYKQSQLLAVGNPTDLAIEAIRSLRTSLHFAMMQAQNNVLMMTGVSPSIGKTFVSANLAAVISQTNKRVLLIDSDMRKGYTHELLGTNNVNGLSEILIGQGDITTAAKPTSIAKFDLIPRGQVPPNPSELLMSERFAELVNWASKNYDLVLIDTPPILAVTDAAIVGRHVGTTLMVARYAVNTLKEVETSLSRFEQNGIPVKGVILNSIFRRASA

Assay [3] concerns the target T3, Wzc_(CDΔC,ΔCys,Leu505Cys) (E. coli (K-12), UniProt P76387 447-704, Cys544Ser | Cys563Ser | Leu505Cys).
T3 sequence: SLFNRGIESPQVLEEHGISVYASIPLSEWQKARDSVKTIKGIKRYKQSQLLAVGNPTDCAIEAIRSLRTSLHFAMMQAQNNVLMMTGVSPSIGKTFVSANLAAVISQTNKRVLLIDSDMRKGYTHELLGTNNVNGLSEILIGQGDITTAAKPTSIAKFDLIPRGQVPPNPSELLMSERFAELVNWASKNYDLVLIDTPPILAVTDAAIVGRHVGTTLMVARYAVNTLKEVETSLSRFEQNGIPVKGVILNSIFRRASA

In assay [4] the target is T4, Wzc_(CDΔC,ΔCys,Ser516Cys) (E. coli (K-12), UniProt P76387 447-704, Cys544Ser | Cys563Ser | Ser516Cys).
T4 sequence: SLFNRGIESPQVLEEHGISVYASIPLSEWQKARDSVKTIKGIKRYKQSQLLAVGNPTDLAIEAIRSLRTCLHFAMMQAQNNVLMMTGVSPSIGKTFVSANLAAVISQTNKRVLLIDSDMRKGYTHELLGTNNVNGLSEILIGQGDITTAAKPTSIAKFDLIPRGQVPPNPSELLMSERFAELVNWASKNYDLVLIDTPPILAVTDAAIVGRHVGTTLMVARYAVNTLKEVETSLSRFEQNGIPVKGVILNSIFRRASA

Assay [5] deals with T5, Wzc_(CDΔC,ΔCys,Gln523Cys) (E. coli (K-12), UniProt P76387 447-704, Cys544Ser | Cys563Ser | Gln523Cys).
T5 sequence: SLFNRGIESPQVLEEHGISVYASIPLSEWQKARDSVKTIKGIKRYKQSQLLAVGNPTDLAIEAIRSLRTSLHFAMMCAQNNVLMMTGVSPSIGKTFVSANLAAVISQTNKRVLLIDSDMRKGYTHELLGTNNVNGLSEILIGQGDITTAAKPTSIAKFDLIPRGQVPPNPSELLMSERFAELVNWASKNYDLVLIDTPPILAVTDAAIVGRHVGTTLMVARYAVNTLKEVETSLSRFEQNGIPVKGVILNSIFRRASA

Assay [6] has as its target T6, Wzc_(CDΔC,ΔCys,Lys556Cys) (E. coli (K-12), UniProt P76387 447-704, Cys544Ser | Cys563Ser | Lys556Cys).
T6 sequence: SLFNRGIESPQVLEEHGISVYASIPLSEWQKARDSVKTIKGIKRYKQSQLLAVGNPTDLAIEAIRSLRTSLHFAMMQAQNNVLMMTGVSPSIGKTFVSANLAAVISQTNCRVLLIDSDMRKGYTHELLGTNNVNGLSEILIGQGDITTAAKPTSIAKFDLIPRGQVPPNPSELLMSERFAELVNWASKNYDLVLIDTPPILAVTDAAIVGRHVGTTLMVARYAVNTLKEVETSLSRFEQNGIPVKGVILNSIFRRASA

B1: full-length E. coli (K-12) Wzb, wild type (enzyme)
chain: MFNNILVVCVGNICRSPTAERLLQRYHPELKVESAGLGALVGKGADPTAISVAAEHQLSLEGHCARQISRRLCRNYDLILTMEKRHIERLCEMAPEMRGKVMLFGHWDNECEIPDPYRKSRETFAAVYTLLERSARQWAQALNAEQV
B1: the Kd in assay [1] came out at 15.2 ± 0.6 µM; in assay [2], 8.9 ± 0.3 µM; in assay [3] it was 43.8 ± 1.3 µM; in assay [4], 11.3 ± 0.7 µM; in assay [5], 16.9 ± 0.5 µM; in assay [6], 7.3 ± 0.4 µM.
